Measurements as given in patent publication US8455447B2, “Modified therapeutic agents” (priority 2002, dated 2013).
Like-named read-outs stand apart in the source and are kept apart here. Ends that are not written are not given here.

Legend:
Assay type in all cases: cell-based
sheep erythrocytes [1] = assay: Anti-haemolytic assay: classical pathway mediated haemolysis of sheep erythrocytes, absence of albumin; details: No BSA; non-stick plates; Example 3; read-out: IH50 (the source's name)
Protocol: The Anti-complement activity of the modified SCR1-3 agents was measured by classical pathway mediated haemolysis of sheep erythrocytes.
Step 1—The Dilution Plate
7 wells of each of 9 lanes, missing the uppermost well, on a flat-bottomed microtitre plate were filled with 200 μL of diluent (0.100 M Hepes, 0.150 M NaCl, 0.100% gelatin, adding NaOH to pH 7.4).
Into the uppermost wells, the required volume of each test/control sample was aliquotted, immediately followed by enough diluent to make the total volume up to 300 μL, to ensure a final concentration of 1.2 μM.
Using a multichannel Gilson pipette, all 9 top wells were mixed and 100 μL were transferred from these wells to the corresponding wells in 2nd row. […]
After incubation the plates were centrifuged at 1600 rpm for 3 min and the Nescofilm removed. 150 μL of supernatant from each well of the two plates was then transferred into the corresponding wells of two new microtitre plates and the absorbance of each well measured at 405 nm using a plate reader.
% inhibition was calculated using the following formula:
[formula] wherein: • Ao=the mean value of the absorbances in lane 1 • Amax=the mean value of the absorbances in lane 2 • t=the mean of the two absorbance values for each sample at any given concentration. […]

sheep erythrocytes [2] = assay: Anti-haemolytic assay: classical pathway mediated haemolysis of sheep erythrocytes, presence of bovine serum albumin; details: 40 mg/ml BSA (fatty acid free); non-stick plates; Example 3; read-out: IH50 (the source's name)
Protocol: Anti-Complement Activity of Acylated Peptide/APT154 Conjugates in the Presence of Bovine Serum Albumin (BSA)
7 wells of each of 4 lanes, missing the uppermost well, on a flat-bottomed microtitre plate were filled with 200 μL of the BSA/diluent solution. Into the uppermost wells, the required volume each test/control sample (APT3328, APT33330, APT33331 and APT070) was aliquotted, immediately followed by enough BSA/diluent solution to make the total volume up to 300 μL, to ensure a final concentration of 1.2 μM.
These 1.2 μM wells were then diluted across a 3 log dilution gradient and the rest of the assay performed as for the peptide/APT154 conjugates. The BSA diluent solution was used instead of pure diluent except for the Ao lane of the reaction plate, for which pure diluent (50 μL) and the BSA/diluent solution (50 μL) were aliquotted. The whole assay was repeated.
[…] In the Ao lane of the reaction plate, for which pure diluent (50 μL) and the BSA/diluent solution (50 μL) were aliquotted.
Multiple anti-haemolytic assays were performed on the reaction mixture of more than one batch of APT3147, in the presence and absence of fatty acid free bovine serum albumin (BSA) at both 4 mg/ml and 40 mg/ml, on non-stick plates.

[3] = test system: MAC formation on guinea pig erythrocytes; assay: Reactive lysis system: inhibition of MAC formation on guinea pig erythrocytes; details: for IC50: read-out: IH50 (concentration of protein required to achieve 50% inhibition of lysis)
Protocol: The ability of APT2439, APT3073 and APT3280 to inhibit MAC formation on guinea pig erythrocytes, was tested in a reactive lysis system. The effect of human albumin (HSA) on this activity was also investigated. Test samples were prepared at a range of concentrations in the presence or absence of 8 mg/ml fatty acid free HSA (Sigma, UK). 50 μL of these dilutions was added to 50 μL of a 5% suspension of guinea pig erythrocytes in PBS/0.1% gelatin, and incubated for 30 minutes at 37° C. 10 μL of human C5b6 complex (C5b6 was partially purified from acute phase serum) in PBS containing 15 mM EDTA and 0.1% gelatin, was added to the guinea pig erythrocyte suspension. 40 μL of normal human serum, diluted in PBS containing 15 mM EDTA and 0.1% gelatin was added as a source of C7, C8 and C9, and the suspension was incubated for 1 hour at 37 degrees Celsius. (The concentrations of C5b6 and normal human serum required to achieve about 80% lysis of guinea pig erythrocytes was pre-determined by titration.) The reaction mixtures were centrifuged for 5 minutes at 1000×g and the degree of haemolysis was determined by measuring the absorbance of the supernatant at 410 nm. To determine background lysis, a control reaction was prepared without serum. To determine maximal lysis, a control reaction containing no inhibitor (or test sample) was prepared. The percentage inhibition of haemolysis was determined for each protein at each concentration. An IH50 value (the concentration of protein required to achieve 50% inhibition of lysis) was determined for each protein in the presence and absence of HSA.

APT3147: bismyr-GSSKSPSKKKKKKPGDC conjugated to SCR1-3; SEQ ID NO: 26; two myristoyl groups (not fully specified (N-terminus); printed as bismyr-GSSKSPSKKKKKKPGDC; also: two myristoyl groups (bismyr-), places not given here, conjugated to SCR1-3) [bismyr-… conjugated to SCR1-3; two myristoyl groups]
IC50 (sheep erythrocytes [1]): 2.2 nM
IC50 (sheep erythrocytes [2]): 2.2 nM

B1: APT2439: Recombinant human CD59 (lacking the GPI anchor), with an amino-terminal methionine and a carboxy-terminal cysteine, expressed in E. coli (protein)
chain: MLQCYNCPNPTADCKTAVNCSSDFDACLITKAGLQVYNKCWKFEHCNFNDVTTRLRENELTYYCCKKDLCNFNEQLENC
IC50 ([3]; Presence of HSA (2.7 mg/ml)): 400 nM
concentrations required to achieve complete inhibition of haemolysis ([3]; absence of HSA): mM concentrations
IC50 ([3]; absence of HSA): 600 nM
decrease in potency in the presence of HSA ([3]; presence of HSA): did not demonstrate any decrease in potency

B2: APT3073: disulphide conjugate of APT2439 and APT2258 (Myr-GSSKSPSKKDDKKPGDC (2-SPy)-NH2) (conjugate)
chain: B1 chain
peptide: GSSKSPSKKDDKKPGDC
IC50 ([3]; Presence of HSA (2.7 mg/ml)): 6 nM
increase in potency compared to APT2439 ([3]; absence of HSA): ~3 log
IC50 ([3]; absence of HSA): 0.8 nM
decrease in potency compared to its potency in the absence of HSA ([3]; presence of HSA, final concentration 2.7 mg/ml): 1 log

B3: APT3280: disulphide conjugate of APT2439 and APT3146 (thiopyridylated bisMyr-KSSKSPSKKDDKKPGDC) (conjugate)
chain: B1 chain
peptide: KSSKSPSKKDDKKPGDC
IC50 ([3]; Presence of HSA (2.7 mg/ml)): 0.08 nM
increase in potency compared to APT2439 ([3]; absence of HSA): ~4 log
IC50 ([3]; absence of HSA): 0.1 nM
decrease in potency in the presence of HSA ([3]; presence of HSA): did not demonstrate any decrease in potency
